What is called Km is the concentration of substrate that gives half-maximal velocity. As usually defined, the kcat is the maximal rate divided by the concentration of active sites.

Km, kcat and kcat/Km data for four proteins are collected here from US12371675B2, “Process and microorganism for synthesis of adipic acid from carboxylic acids” (THE GOVERNING COUNCIL OF THE UNIVERSITY OF TORONTO, priority 2015, dated 2025).

Substrate in data set [1]: O=C(O)/C=C/c1ccccc1
Nature of the data set: Kinetics of purified EREDBC, NADH oxidation at 340 nm, anaerobic. Type of data set: biochemical, Bacillus coagulans 36D1. The conditions noted are these: other: trans-cinnamic acid, pH 7.0, 30° C., anaerobic. How it is done:
(§1) The C═C reducing activity of EREDs was examined. Enzyme activity of purified EREDs was measured spectrophotometrically in 96-well plates by following incubation for 3-5 min at 30° C. in the anaerobic chamber as described in M. Buhler, H. Simon, Hoppe-Seyler's Zeitschrift fur Physiologische Chemie 1982, 363, 609-625. Buffers and reagents were degassed and sparged with Ar. Reaction mixture contained potassium phosphate (100 mM and pH 7.0), NADH (0.5 mM), indicated substrates, and proteins (0.1-50 μg) in a final volume of 200 μL. Enzyme reactions were monitored by following the decrease in absorbance at 340 nm (ε340 nm=6,220/M·cm) due to oxidation of NADH to NAD+.
(§2) For in vitro biochemical characterization, enzyme activities of purified EREDs were measured with 2-hexenedioic acid, cis-cis-muconic acid, trans-trans muconic acid, trans-cinnamic acid, trans-2-methyl-2-butenoic acid, trans-2-butenoic acid, acrolein, 2-cyclohexen-1-one, and 3-methyl-2-cyclohexenone. […] [Feng, J. et al. Discovery and Characterization of BlsE, a Radical S-Adenosyl-L-methionine Decarboxylase Involved in the Blasticidin S Biosynthetic Pathway. PLoS ONE 8 (2013)].
(§3) Kinetic studies of purified EREDBC were performed using 2-hexenedioic acid, 2-cyclohexen-1-one, 3-methyl-2-cyclohexenone, and trans-cinnamic acid as substrates (FIG. 10).
(§4) To increase the dissolved substrate concentration, 2-hexenedioic acid was dissolved in a reaction mixture containing […] (final concentration) isopropanol, and kinetic constants of EREDBC and EREDCA were determined.

Substrate in data set [2]: O=C(O)C=CCCC(=O)O
The data set is described as above. The data set is classed as biochemical, Bacillus coagulans 36D1. The conditions noted are these: other: 2-hexenedioic acid in 0.25 mM isopropanol, 2.5 to 35 mM, sigmoidal kinetics, pH 7.0, 30.0 °C. Here is the method:
as §1, §2, §3, §4

Substrate in data set [3]: O=CCCCCC=O
Nature of the data set: AT kinetics, coupled with alanine and glutamate dehydrogenases. The data set is classed as biochemical, Streptomyces avermitilis. Conditions: other: amino-donor Ala/Glu; pH 7.5. Here is the method: (§5) 28 PLP-dependent aminotransferases (from the classes I, II and III) were cloned and overexpressed in E. coli (Table 6). Enzymes were purified using affinity chromatography on a Ni-NTA resin and were screened for […] activity towards adipaldehyde using alanine and glutamate as amino-donors. Enzyme activity was measured spectrophotometrically using a coupled reaction with the NADPH/NADH-dependent alanine and glutamate dehydrogenases in the presence of excess of ammonium chloride.
(§6) Reaction was monitored by following the decrease in absorbance of NAD(P)H to NAD(P)+ at 340 nm (ε340 nm=6,220/M·cm). Coupled enzymes can aminate pyruvate/ketoglutarate produced by ATs in excess of NH4Cl.

Substrate in data set [4]: O=C(O)/C=C/c1ccccc1
Nature of the data set: Kinetics of purified EREDCA, NADH oxidation at 340 nm, anaerobic. The data set is classed as biochemical, Clostridium acetobutylicum DSM 1731. The conditions noted are these: other: trans-cinnamic acid, pH 7.0, 30° C., anaerobic. How it is done: as §1, §2, §4

Substrate in data set [5]: O=C(O)C=CCCC(=O)O
Described as above. Type of data set: biochemical, Clostridium acetobutylicum DSM 1731. Conditions: other: 2-hexenedioic acid in 0.25 mM isopropanol, 2.5 to 35 mM, sigmoidal kinetics, pH 7.0, 30.0 °C. How it is done: as §1, §2, §4

Substrate in data set [6]: O=CCCCCC=O
Nature of the data set: AT kinetics, coupled with alanine and glutamate dehydrogenases. Conditions: other: amino-donor Ala/Glu; pH 7.5. The data set is classed as biochemical, Escherichia coli. How it is done:
as §5, §6

B1: Bacillus coagulans 36D1 2-enoate reductase EREDBC, SEQ ID NO: 1 (Heyndrickxia coagulans) (protein)
chain: MKYKKLFETVKIRNVELKNRYAMAPMGPLGLADAEGGFNQRGIEYYTARARGGTALIITGVTFVDNEVEEHGMPNVPCPTHNPVHFVRTSKEMTERIHAYDSKIFLQMSAGFGRVTIPTNLGEYPPVAPSPIPHRWLDKTCRELTVEEIHSIVRKFGDGAFNAKRAGFDGVQIHAVHEGYLLDQFAIAFFNKRTDAYGGPLENRLRFAREIVEEIKQRCGEDFPVTLRFSPKSFIKDWREGALPGEEFEEKGRDLDEGIEAAKLLVSYGYDALDVDVGSYDSWWWSHPPMYQKKGLYIPYARLVKEAVDVPVLCAGRMDNPDLALAALEDGACDIISLGRPLLADPDYVNKLRIGQVADIRPCLSCHEGCMGRIQEYSSLGCAVNPAACREKEAALTPALKKKRVLIAGGGVAGCEAARVLALRGHEPVIFEKSNRLGGNLIPGGAPDFKEDDLALVAWYEHTLERLGVEIHLNTALTKEEILAANVDAVLIATGSNPKILPLDGKNKVFTAEDVLLDKVDAGQHVVIVGGGLVGCELALNLAEKGKDVSLVEMQDKLLAVNGPLCHANSDMLERLVPFKGVQVYTSSKIVDTTEKTAVVDVDGELREIEADSIVLAVGYSAEKSLYEDLKFEVADLHVVGDARKVANIMYAIWDAYEVAANL
Turning to B1, the Michaelis constant (Km) in data set [1] came to 510 µM; in data set [2] it was 18900 µM. Moreover, the kcat in data set [1] stood at 0.50 s⁻¹.

B2: Streptomyces avermitilis aminotransferase SAV2583, SEQ ID NO: 55 (Streptomyces avermitilis MA-4680 = NBRC 14893) (protein)
chain: MSALPQERRVVTAIPGPKSQELQARRTAVVAAGVGSVLPVFTTRAGGGIIEDVDGNRLIDFGSGIAVTSVGASAEAVVRRASAQLQDFTHTCFMVTPYEGYVAVAEALAELTPGDHAKKSALFNSGAEAVENAVKIARAYTKRQAVVVFDHGYHGRTNLTMALTAKNMPYKNGFGPFAPEVYRVPVAYGYRWLTGPENAGAEASAQAIDMINKQIGADNVAAIIIEPVLGEGGFIEPAKGFLPAISKFAKDNGIVFVADEIQSGFCRTGQWFACEDEGIVPDLITTAKGIAGGLPLAAVTGRAEIMDAAHAGGLGGTYGGNPVACAGALGAIETMKELDLNAKAKNIEAVMKARLGAMAEKFDIIGDVRGRGGMIAIELVKDRDTKEPNPEAAGALAKACHQEGLLVLTCGTYGNVLRFLPPLVIGEDLLNEGLDIIEQAFSRI
Turning to B2, in data set [3], the Km was 1350 ± 190 µM, the kcat is 0.39 ± 0.02 s⁻¹ and the kcat/Km entry is listed as “(2.90 ± 0.13) × ×10^2 M^−1 · s^−1”.

B3: Clostridium acetobutylicum DSM 1731 2-enoate reductase EREDCA, SEQ ID NO: 2 (Clostridium acetobutylicum ATCC 824) (protein)
chain: MNKYKKLFEPIKIGKCEIKNRFALAPMGPLGLADSEGGFNQRGIDYYTERAKGGTGLIITGVTFVDNEVEEHGMPNCPCPTHNPVQFVRTGREMTERIHAYNSKVFLQMSGGFGRVTIPTNLGEFPPVAPSPIQHRWLDKTCRELTVDEIKSIVKKFGEGAFNAKRAGFDGVQIHAVHEGYLIDQFAISLFNHRTDEYGGSLENRLRFAREIVEEIKNRCGEDFPVTLRYSPKSFIKDLRDGALPGEEFVEKGRDLDEGVEAAKLLVSYGYDALDTDVGSYDSWWWSHPPMYQEKGLYRKYAKLMKDTVDVPVICAGRMDDPDMALEAVENGTCDVISLGRPLLADPDYVNKLRSNKCKSIRPCISCQEGCMGRVQHYSMLNCAVNPQACKERANSLTPIIKSKKVLIVGGGVAGCEAARVLALRGHEPVLYEKSNRLGGNLIPGGAPSFKEDDIALADWYTNTLKELNVEVNLNSEVTKEQILNSKFDTVIVATGSTPKVFPLGDDEKVFTAAEVLLGQKDPGETTVVVGGGLVGCELALDLAKKGKKVTIVEALNKILALNGPLCSANSEMLQKLIPFNGIDVKANSKVKGYKNGLLKMETENGIEELPCDSVILSVGYKEENSLYKELEFEIPEIYLLGDARKVSNIMYGIWDAFEVANHI
As for B3, in data set [4], the Km is 170 µM and the turnover number (kcat) amounted to 5.2 s⁻¹. Besides, the Km in data set [5] turned out to be 20470 µM.

B4: Escherichia coli aminotransferase gabT, SEQ ID NO: 53 (Escherichia coli K-12) (protein)
chain: MNSNKELMQRRSQAIPRGVGQIHPIFADRAENCRVWDVEGREYLDFAGGIAVLNTGHLHPKVVAAVEAQLKKLSHTCFQVLAYEPYLELCEIMNQKVPGDFAKKTLLVTTGSEAVENAVKIARAATKRSGTIAFSGAYHGRTHYTLALTGKVNPYSAGMGLMPGHVYRALYPCPLHGISEDDAIASIHRIFKNDAAPEDIAAIVIEPVQGEGGFYASSPAFMQRLRALCDEHGIMLIADEVQSGAGRTGTLFAMEQMGVAPDLTTFAKSIAGGFPLAGVTGRAEVMDAVAPGGLGGTYAGNPIACVAALEVLKVFEQENLLQKANDLGQKLKDGLLAIAEKHPEIGDVRGLGAMIAIELFEDGDHNKPDAKLTAEIVARARDKGLILLSCGPYYNVLRILVPLTIEDAQIRQGLEIISQCFDEAKQ
notes: 6His-tag (N); made in house; host or cells: E. coli BL21 (DE3)
B4: in data set [6], the Km turned out to be 670 ± 70 µM, the catalytic constant (kcat) came out at 0.61 ± 0.02 s⁻¹ and the kcat/Km is listed as 9.22±0.27 ×10^2 M^−1 · s^−1.
